# Values of other authors as cited in paper PMC3694163.
# Assays:
# [1] = target: IR (Homo sapiens) (UniProt P06213)
# [2] = target: IGFBP6 (Homo sapiens) (UniProt P24592)
# IGFBP6 (Homo sapiens), sequence (P24592 28-240): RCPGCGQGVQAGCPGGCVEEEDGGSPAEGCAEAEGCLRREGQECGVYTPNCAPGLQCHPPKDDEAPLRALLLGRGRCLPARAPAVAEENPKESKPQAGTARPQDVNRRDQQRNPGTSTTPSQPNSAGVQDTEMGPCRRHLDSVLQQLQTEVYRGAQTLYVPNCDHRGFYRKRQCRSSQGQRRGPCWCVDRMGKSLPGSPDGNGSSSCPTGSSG
# insulin, sequence (P01308 90-110): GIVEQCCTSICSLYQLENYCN
Substance,Kd [1],Kd [2]
insulin (from UniProt P01308),0.1 nM,–
IGF-II (from UniProt P01344),–,5.7 nM
